Article PMC5986104

Molecular target: NOTCH2-Myc (human) (UniProt Q04721)
Sequence of UniProt Q04721 (Q04721 26-2471): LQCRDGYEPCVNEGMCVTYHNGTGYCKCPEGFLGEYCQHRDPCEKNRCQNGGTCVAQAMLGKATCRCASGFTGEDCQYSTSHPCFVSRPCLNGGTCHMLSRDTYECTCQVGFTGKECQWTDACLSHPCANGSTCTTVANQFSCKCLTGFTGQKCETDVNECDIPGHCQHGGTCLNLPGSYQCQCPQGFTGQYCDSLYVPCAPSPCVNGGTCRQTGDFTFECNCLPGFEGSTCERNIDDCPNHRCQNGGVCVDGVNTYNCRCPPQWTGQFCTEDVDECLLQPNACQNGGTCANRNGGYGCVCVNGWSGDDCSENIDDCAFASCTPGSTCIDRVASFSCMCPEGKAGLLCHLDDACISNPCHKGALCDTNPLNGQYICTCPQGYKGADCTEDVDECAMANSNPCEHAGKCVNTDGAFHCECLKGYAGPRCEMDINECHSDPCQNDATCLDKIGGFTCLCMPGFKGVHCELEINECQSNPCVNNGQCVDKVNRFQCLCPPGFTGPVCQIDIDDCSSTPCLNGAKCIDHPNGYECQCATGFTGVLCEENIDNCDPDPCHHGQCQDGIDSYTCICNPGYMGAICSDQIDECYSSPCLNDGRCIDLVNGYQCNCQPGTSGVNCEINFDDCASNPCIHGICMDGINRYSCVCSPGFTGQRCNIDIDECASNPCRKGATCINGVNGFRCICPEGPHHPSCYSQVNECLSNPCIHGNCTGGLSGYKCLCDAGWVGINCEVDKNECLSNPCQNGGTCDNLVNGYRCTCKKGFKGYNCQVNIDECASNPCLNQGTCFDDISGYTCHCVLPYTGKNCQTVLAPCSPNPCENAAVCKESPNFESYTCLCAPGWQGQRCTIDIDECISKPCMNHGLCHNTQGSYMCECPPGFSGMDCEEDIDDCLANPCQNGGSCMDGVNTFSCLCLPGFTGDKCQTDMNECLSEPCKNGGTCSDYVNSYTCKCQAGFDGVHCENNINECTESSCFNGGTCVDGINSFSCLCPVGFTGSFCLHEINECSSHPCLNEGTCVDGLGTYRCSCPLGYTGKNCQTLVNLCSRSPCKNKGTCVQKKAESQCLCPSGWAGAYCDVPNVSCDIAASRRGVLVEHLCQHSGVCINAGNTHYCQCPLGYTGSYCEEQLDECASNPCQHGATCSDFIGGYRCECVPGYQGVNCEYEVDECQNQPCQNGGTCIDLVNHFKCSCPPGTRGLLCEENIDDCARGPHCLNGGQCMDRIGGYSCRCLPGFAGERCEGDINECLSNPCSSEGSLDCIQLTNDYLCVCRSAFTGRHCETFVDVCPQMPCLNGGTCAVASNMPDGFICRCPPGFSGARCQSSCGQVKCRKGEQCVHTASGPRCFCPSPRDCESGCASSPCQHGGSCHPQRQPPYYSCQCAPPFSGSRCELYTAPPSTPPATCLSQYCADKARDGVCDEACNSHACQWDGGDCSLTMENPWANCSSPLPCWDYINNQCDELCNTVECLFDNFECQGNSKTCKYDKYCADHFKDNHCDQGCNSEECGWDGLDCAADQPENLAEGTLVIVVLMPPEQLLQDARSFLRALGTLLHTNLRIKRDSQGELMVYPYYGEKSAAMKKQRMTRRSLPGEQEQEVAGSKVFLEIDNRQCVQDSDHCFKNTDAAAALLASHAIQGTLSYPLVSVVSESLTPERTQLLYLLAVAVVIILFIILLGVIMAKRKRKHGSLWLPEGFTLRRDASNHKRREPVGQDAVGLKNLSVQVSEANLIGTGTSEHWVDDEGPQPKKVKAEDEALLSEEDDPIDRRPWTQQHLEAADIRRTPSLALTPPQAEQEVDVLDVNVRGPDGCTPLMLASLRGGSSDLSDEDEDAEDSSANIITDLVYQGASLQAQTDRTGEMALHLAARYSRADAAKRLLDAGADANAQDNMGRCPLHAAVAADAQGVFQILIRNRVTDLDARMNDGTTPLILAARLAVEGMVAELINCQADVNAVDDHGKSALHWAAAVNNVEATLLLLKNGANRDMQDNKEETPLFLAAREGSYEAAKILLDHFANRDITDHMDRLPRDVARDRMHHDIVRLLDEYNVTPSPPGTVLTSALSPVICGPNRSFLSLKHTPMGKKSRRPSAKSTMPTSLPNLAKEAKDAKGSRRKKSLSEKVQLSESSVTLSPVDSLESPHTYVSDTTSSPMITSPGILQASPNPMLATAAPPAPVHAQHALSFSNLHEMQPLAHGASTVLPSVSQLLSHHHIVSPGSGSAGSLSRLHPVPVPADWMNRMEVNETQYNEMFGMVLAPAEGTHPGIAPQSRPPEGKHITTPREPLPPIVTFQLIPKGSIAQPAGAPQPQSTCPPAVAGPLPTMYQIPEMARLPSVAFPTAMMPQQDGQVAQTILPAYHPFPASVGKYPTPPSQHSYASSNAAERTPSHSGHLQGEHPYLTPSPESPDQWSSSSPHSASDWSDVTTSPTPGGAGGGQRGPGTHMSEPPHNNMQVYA

NOTCH2-GAL4 reporter activation under baseline conditions, increase (Figure 6H) [%] | NOTCH2-GAL4 reporter activation with JAG2 co-culture, increase (Figure 6I) [%] | NOTCH2-GAL4 reporter activation under baseline conditions, increase (Figure 6J) [%] | Substance
31 | 53 | – | NOTCH2NL^Sh,T197I (natural protein)
– | – | 63 | NOTCH2NL-HA^L,T197I (from UniProt P0DPK3 26-275) (natural protein)
– | – | 21 | NOTCH2NL^L (from UniProt P0DPK3 26-275) (natural protein)
